# Experiment: label from the status in PepcDB records
row,Sequence,protein production
1,MNVSKILVSPTVTTNVLRIFAPRLPQIGASLLVQKKWALRSKKFYRFYSEKNSGEMPPKKEADSSGKASNKSTISSIDNSQPPPPSNTNDKTKQANVAVSHAMLATREQEANKDLTSPDAQAAFYKLLLQSNYPQYVVSRFETPGIASSPECMELYMEALQRIGRHSEADAVRQNLLTASSAGAVNPSLASSSSNQSGYHGNFPSMYSPLYGSRKEPLHVVVSESTFTVVSRWVKWLLVFGILTYSFSEGFKYITENTTLLKSSEVADKSVDVAKTNVKFDDVCGCDEARAELEEIVDFLKDPTKYESLGGKLPKGVLLTGPPGTGKTLLARATAGEAGVDFFFMSGSEFDEVYVGVGAKRIRDLFAQARSRAPAIIFIDELDAIGGKRNPKDQAYAKQTLNQLLVELDGFSQTSGIIIIGATNFPEALDKALTRPGRFDKVVNVDLPDVRGRADILKHHMKKITLADNVDPTIIARGTPGLSGAELANLVNQAAVYACQKNAVSVDMSHFEWAKDKILMGAERKTMVLTDAARKATAFHEAGHAIMAKYTNGATPLYKATILPRGRALGITFQLPEMDKVDITKRECQARLDVCMGGKIAEELIYGKDNTTSGCGSDLQSATGTARAMVTQYGMSDDVGPVNLSENWESWSNKIRDIADNEVIELLKDSEERARRLLTKKNVELHRLAQGLIEYETLDAHEIEQVCKGEKLDKLKTSTNTVVEGPDSDERKDIGDDKPKIPTMLNA,failed
2,MNVTLGTGDGADFWVFGFGSLIWKPDIPFEECRDAFITGWRRRFWQHSTDHRGTESYPGRVATLVLAEQPGERCYGRAYRVDNEAAADVLAYLDEREKQGYSRLALPVYDARSAEQITKHALVYIAREDNPHFVRAADERQIPVLCRIIARARGPSGDNATYLFRLKESLDEIGVRDEHVDELVFGVRAELEALASACSESTPHGVAVAPTAASFDAVPASSDDLR,failed
3,MNYAEKKKNWIKLGIFALFAGGILAYIGISNADIHWGGFISMMIFFAFTYYLGAFYAAKKSNSFSDMIVAKRSMPFFVGMVTMAATWVGGGYINGTAESTYSDGLIWAQAPWGYALSLIIGGIFFARKMRRHQFMTIIDPLEQRFGKRMAGVLYIPALLGELFWSAAILTALGTTFGMILNIDFQTSIILSAMIAIAYTVAGGMWAVAFTDVFQMIVILLGLFLVVPFVLSNVGALDSVWANYRHDFGSSANLLPPLDGWKNPDWGNLFWNWWDNALLLIFGGIAWQVYFQRVLSAKSESAAMWQSIIAGVICIIAAIPCVIIGAAGNSTDWSLFGASAPDNPAMILPQTLAYLTPGIIAGLGLGAIAAAVMSSMDSSILSASSMAAWNIYRPLIKPKATQKQLQKVVKRSIILFGAGAAVIALNVKSVYTLWYLASDLVYCILFPQLTMALFYKRANLYGSIAGFAVAVILRLGGGEPAFGIPPLLPYPMIEDGTVLFPFRTLAAVTAFMTIFAVSELTQRKCPPKQLVLPQEKQKDDRAA,failed
4,MNYKKHRGETLFKRWFLNNRFSIVLLNILLFFLIIWVFNKISFVLNPAWVFFSAILPPLLLALIQYYIMNPVVDWFEKKFRVPRVLTIIVLFLFVVIAMIWIINILVPIAQHQINSLVKNWPHIWNDAVNATQNALRDPRLHSVKGSIQGMIDDTQKTLFKSGQNTVNSTLGNISSAVSIITMIVMTLLTAPFILFFMLKDGHQLRPYITKFVPETWQQSFSKLLYDINYAVASYIRGQITVAFWVGVMFTIGYIIIGLPYGLALAILAGFMNLIPYFGTPLALIPVIVISIMTSGSMLVKVLIVFAIEQTIETRILSPLVMGNKMQMHPVTTILLLIGASSVWGLWGVIFGIPIYAVLKIIVSRVYNYYRRESDIFSNEDAASLTTGDADESKK,failed
5,MNYLPMMIVFPLIMAIIMNLLHGKEKAVKYITFITAAILIILPFISQYGYYYFGGHGVVNGWVSGIAYLYNPAKQAIIVTLSLIASLVLITGMGEKLKNNMFVTLSLMGFASIAAIVLADDIFNLYVFFEIVSIVQAGLVFLSGTEEAYKAGLRYMIMGNVAAALMLLGIAFLLASTGTLNITDMKHYLLVDNPMIYGGLLLLIVGLAYGAGLPPFHNVKADLYARSKGFISAMLQTYSKFVLVGLMIIILKLFNGLDYFASAHAVLIALGVLAMVFGVVMALLQSDYKKLLAYHAISQGGYVATGLALGTPLGIVAGIFHAINHVIYKSALFLGAYIVSCKRGSNLHKLGGLLPLMPSVAFMVLCAKLAISGIPPFNGFQSKWMLAQAAMQVNMPEIAIIMIIVSIGTFVSMMKAFYLIYLKPVDEETLKEYQNKEVPKLAVFSLFVLTALCIIIGLYPDIVTNYLWDYAKELGVNYYLK,failed
6,MNYQDVLDFWFAPDHTNFWFAKDSLFDDEIRTQFSTVHQQATQAELWSWRQTVEGRLAEIIVLDQFSRNLYRDQAQAFAQDSMALALAQEAITQQLDAQLSPEQRSFLYMPFMHSESKLIHEFALKLFQKLGNEINLSFEKKHKVIIDQFGRYPHRNAILGRQSTPEELEFLTQPNSHF,failed
7,MNYQKMNYQKLGVDILALSGGKQNVSKLTHCATRLRFEFNDSHAVQAEAIAKLPGVISVVDRGGQFQVVIGNDVQITYRAILNEIGEMNGQRTSDKNKQQKKGGIFSQIISVISTTFTPVIPAITGAGMIKALLAILKLTGLISADSTTYRLLDTISDAAFFFLPVLLAYGASIKFACNPILAMTIAGALLHPNLAQLLASGGPISFIGIPVRLADYAGSVLPIILTVWIMSYIERFAEKISPSMITFFTKPMIVLLFTAPLALVVIGPFGIFLNDLVASGAAIIDGKASWLIPMLMGGLQPFLVITGTAWAMTPIATSQLTRNGFEMINGPGMLASNIAQGAATLCVAFKTKNKNLKQLASSAGFTALLGITEPSLYGVTLKLKKPLIAAMIGGGCAGIYAGLAGLVRYAFVSPGLAALPAFIGENPMNIVHALITCAIAIVVTFALTWIMGFDDPVDETDNAQTDSTQSDARQSAPAANTTQKSQATENHAEPQTILSPLSGKLVALSDINDDVFSQGLLGQGVAIIPDNGEVVAPVSGEIITFLESKHAVGIRTDSGLELLIHVGLDTVNLNGKHFTGYIKPGDRVTAGDRLISFDLHEITRLGYDPITPVVIINSDEYASVVCTVPQPIAPMDTIINVNA,failed
8,MNYRLLVFDFDGTLADSEASIMGAMQLVAKEFGLSEVDCVKARPTIGLSLLRTIEIGLGLEAGDAAAAVELYRRYYKEIAFDSTCLFPGVKETQEQLRQNSLLAIASSKSRQGLLSRMRQFGIVDHFSFIAGAQDISGL,failed
9,MPAFSLLPKPSALLPLLLAAAFLPPAFVHAEEEAAKDQPQAPVERPAVSERSQDEAKGLERQLPEDGQQILKAGDESFLTLWLPANTAEAEGVVILVPGDGESPDWPQAIGPLRRKLPDAGWQTLSLALPDPQSTAPVTRPAESAASASADKDASAADSASKPDVKGESGNAPAPESTAEAGSGEPAQSEDQAPPPAIDPVEQRKAHAERVMARLQASIDLALQHEPKSVVLLGHGTGAYWAARYLAEKEPAEIHNLLLVAAEVPRDFRPALEDMVPKLKLATGDFYYRDARADREAARLRMQAGKRQKHPAYVQIAMQALPADPKAEQEQLYRRIRGWLSLHLQADAQKPAE,failed
10,MPAKTALIYSNDFSRFSYGDDHPFKIQRIILARELMGMLGLTELPGACIHDCPRADEASLLTFHSPDYLQRLREFSDSDEPRADFRYGLGDLDNPVFKGFYDWAILGVGGTMEAARLVTEEGYDIAFTMAGGWHHAHRSKASGFSYLNDAVIAINTLVAKGLRVAYLDIDAHHGDGVQEAFYDTDQVLTVSIHESGIYFFPGTGFEDEIGRGQGRGYSVNVPLVAHTDDALFMKAFDEVAYPLIAAYNPDVLVTQLGVDTFRTDPLTRLEITTHSYTYILRKLKALKIPWVAVGGGGYNMINVARGWTLAWGIMNGVELPPKLPAQFVDMIAPMGHPNRMLLDAMHWAEEDDRNRALDAVERSIAAIRETVFPVIIGNYAAAAGE,failed
11,MPALDLIRPSVTAMRVIASVNAEFARELKLPPHIRSLGLISADSDDVTYIAADEATKQAMVEVVYGRSLYAGAAHGPSPTAGEVLIMLGGPNPAEVRAGLDAMVANIENGAAFQWANDAENTAFLAHVVSRTGSYLSSTAGITLGDPMAYLVAPPLEATYGIDAALKSADVQLVTYVPPPSETNYSAAFLTGSQAACKAACNAFTDAVLEIARNPIQRA,not failed
12,MPAPAATYERVVYKNPSEYHYMKVCLEFQDCGVGLNAAQFKQLLISAVKDLFGEVDAALPLDILTYEEKTLSAILRICSSGLVKLWSSLTLLGSYKGKKCAFRVIQVSPFLLALSGNSRELVLD,not failed
13,MPARPAYSRLQIALHWLVAILIAAAWLTHEGMGRALETRIETGASGFEGNTPHVWLGIAVFVAVLIRIVVRRVQGAPGPLPGATPLMEKAATWGHRLLYLLMVLTPALGALAWNAHSEAVGELHETVGSALMLVALGHALVALWHQYVKKDGSLTRITRPQG,failed
14,MPCTPDTTSHPCFTEKAAQSCGRVHLPVAPKCNVLCGYCNRKYDCVNESRPGVTSGVLTPAQAADYLDRVLEREPAIRVAGIAGPGDPMANAAATLETLRLIRQRHPDMLFCLSSNGLGMPPHLDALAANGVTHATLTINAVDPDISARLYTWVRDGKVVWRGRPAAELMLERQLTALTGLVQRGIVVKVNTILVPGINDGHVEQVAEKVAALGATLMNIIPLHPTHDTPLAQVAEPSPEAVGEARRLAGAHIRQMTHCRRCRADAVGLLHHDRSRELAPLLRECAQKDDGAGARPFVAVATREGMLVNQHLGEATRLQIWGLGPARSGKGGTTTGGEAASGRNDAKGTGSGDVPGSTGGNSWGKAGATPWDSEEDKNDKRTDSTGSTGGDSGAVCGTTHGTTCGKDATRAGTDATDMPVPVLLEERATPRPGCGPERWHALADMLKDCRAVLTAACGESPRAILREHGITVTECAGIVEDVVGAVLAGLDVNAFRARKGGVSKGCCRGGGDGC,failed
15,MPDGWRKMGVLVFYDLPVVSPEQRLAAVRFHKFLLADGFERMHYSIYARYCGSMERAATYERRVEQALPAVGHVNLLKLTDRQMVGMRKWIRGNYRAPENAEFVPPAQYQLFLEHHHHHH,failed
16,MPDIAVLVKASLNPDMARIGPDDSVDLNSIPLKISDIDRNAVEEAVKLKEKLGGKLYAVSVLTWGPVKLRNKDLRLAVQEALAKGVDEAIVVADDELTPGDQTTTAKAIKAALEKHGVKPELILAGEATIDEVTSQVPGRLASLLGYKYLSFVRKLDVDNGRIIAERDLEDYIEVVEASLPAVVSVTQEINEPRPPTLLQIRRAARKPVKEYSASELENVGKPVRRIVQIRGVQVKRKQQIIEGDNLEEIAEKLIEALAREGVLKL,failed
17,MPDINESMLNQFRPVIRRFIDPIADRIALPADYITLTGFLVACAASAGYASGSLITGAALLAASGFIDVLDGAVARRRFRPTAFGGFLDSTLDRLSDGIIIIGITAGGFTGLLTGLLALHSGLMVSYVRARAESLGIECAVGIAERAERIIIILAGSLAGYLIHPWFMDAAIIVLAALGYFTMIQRMIYVWQRLK,failed
18,MPDKKREVSLSHRLQEVASFVPKGARLLDVGSDHAYLPIYLLEQGLIDFAVAGEIIKGPYESAVANVSESELSGQIAVRLADGLAALNDNDDIDLITICGMGGRLIADILAAGSDKLNSVKQLILQPNNCEDDLRSWLVANDFMIKAEKMVKDRHKYYEILVVEKGKITLSDKDLRFGPFLRQERSSIFKERWRKELAKLELALTKVPAKKKADNMFLSTKIEQIKEVLYES,not failed
19,MPDSPLPLYHKVYLLLKQRLQSGGFALNAAMPGENALAAEYGVSRLTIRRSLEALESEGLIERRQGRGTFAAEGAILSAPQHSADIDTLMAHLARMGMHTQVNLLELDTVPATPQVAAQLELPAGAPVQRAVRVRSHQGLPFSYLVTYVPGEIGQRIRREDLGAKPLLAIFRDLGVRVARAQQSISAVLAEPGTAGALDVPVGSALLSLQRLVRDDAGRPVEWLHALYRPDRYEYRLDMQAHDTPGQPTWLPAGAPRRA,failed

# From a protein production outcome set (Wang et al. 2014)
